Data: publication PMC11840927, “Frataxin Traps Low Abundance Quaternary Structure to Stimulate Human Fe–S Cluster Biosynthesis” (Biochemistry, 2025)

Experiments:
[1] = target: SDAec complex with the Q64S, P299H, L300Q NFS1 triple variant (human | Escherichia coli) (UniProt Q9Y697)
[2] = target: T1, NFS1(Δ1–55) with N-terminal His6 tag (human, UniProt Q9Y697 56-457, covalently attached PLP); assay: native MS; protomer exchange: 1:1 mix of 15N- and 14N-labelled SDAec (or His-tagged and untagged IscS), room temperature, 200 mM ammonium acetate pH 8.5, EMR Orbitrap; ratio of exchanged dimer to the sum of unexchanged dimers; α2β2γ2 (or IscS dimer) to protomers and back; settings: both partners purified
T1 construct: NFS1, human cysteine desulfurase, Δ1–55 (residues 56 to the C-terminus); The NFS1 chain of m1; also called α subunit; source: recombinant, co-purified within the SDAec complex; not shown: His6, N-terminal, kept

| Molecule | FXN-stimulated cysteine desulfurase activity (μM S^2–/min·μM NFS1) [1] | binding result [2] |
| --- | --- | --- |
| FXN (Δ1–81) (from UniProt Q16595 82-210) (natural protein) | 8 |  |
| Escherichia coli acyl-carrier protein (natural protein, acyl-4′PPT (assumed mass 523 Da), Escherichia coli acyl-carrier protein (ACPec) associated with NFS1-ISD11; The ACP chain of m1; also called ACPec; ACP; source: co-purified within the SDAec complex) MSTIEERVKKIIGEQLGVKQEEVTNNASFVEDLGADSLDTVELVMALEEEFDTEIPDEEAEKITTVQAAIDYINGHQA |  | binds |
